These results are taken from patent publication US20170233441A1.

Assay [1] addresses BG505 SOSIP.664 trimer+sCD4 complex (HIV-1 strain BG505; human) (UniProt P01730).
Assay [2] deals with BG505 SOSIP.664 HIV-1 Env ectodomain trimer (HIV-1 strain BG505). Briefly: crystal structure, interfaces between protomers.
For assay [3], the target named is gp120 subunit of BG505 SOSIP.664 (HIV-1 strain BG505). Description: crystal structure; includes 216 Å^2 from glycan-protein interactions.
Assay [4] deals with gp41 ectodomain subunit of BG505 SOSIP.664 (HIV-1 strain BG505). Briefly: crystal structure, interfaces between protomers.
The target of assay [5] is gp120 subunit of BG505 SOSIP.664 (HIV-1 strain BG505). Description: crystal structure, interfaces between protomers.

In turn, 3074 antibody came in with a t1/2 of CD4-induced exposure of the epitope in assay [1] of 4.2 h.
“BG505 SOSIP.664 HIV-1 Env ectodomain trimer”: the buried surface of the trimer interfaces, contributed by each protomer in assay [2] came out at 3140 Å^2.
Take “gp41 ectodomain subunit of BG505 SOSIP.664”: the buried surface within a single protomer in assay [3] was determined as 5270 Å^2. The same substance displayed a buried surface of the gp41-gp41 trimer interface in assay [4] of 1920 Å^2.
For gp120 subunit of BG505 SOSIP.664, in assay [5], the buried surface of the gp120-gp120 trimer interface was determined as 861 Å^2. The buried surface of the gp120-gp41 interface between protomers in assay [4] was determined as 360 Å^2.
